Source: PMC6344864 (Nucleic Acids Research, 2018)

B1: 84-mer ssDNA (ssDNA)
DNA: GGTAGCGGTTGGGTGAGTGGTGGGGAGGGTCGGGAGGTGGCGTAGAAACATGATAGGAATGTGAATGAATGAAGTACAAGTAAA
B2: His6-tagged Mei5-Sae3 heterodimer (complex, Saccharomyces cerevisiae)
chain 1: MHNQEEWLDKDKTLVNEEENTCINHSYTKKDTNNYRVGKSGIKDLKKPTNQKEIAIKNRELTKQLTLLRQENNHLQQACKILSENKIIENRKSIEKWRTICEMELSFILNSTLIKINRMGGYKDFLEKEMEAKKRRLEYQIDNGMEDQICEIKESDDFRQLSEVEKQEWESQMNEQLKELEKKKIAELEKLNKVLHDSEGKDFGMAELCTRLKLDYSLIFPQ
chain 2: MNYLETQLNKKQKQIQEYESMNGNLIKMFEQLSKEKKNDETPKKISSTYIKELKEYNELRDAGLRLAQIIADEKQCKIKDVFEEIGYSMKD

Experiments:
Rdh54/Tid1 = biological target: T1, Rdh54/Tid1 (Saccharomyces cerevisiae, UniProt P38086 1-958); assay: fluorescence polarization
T1 sequence: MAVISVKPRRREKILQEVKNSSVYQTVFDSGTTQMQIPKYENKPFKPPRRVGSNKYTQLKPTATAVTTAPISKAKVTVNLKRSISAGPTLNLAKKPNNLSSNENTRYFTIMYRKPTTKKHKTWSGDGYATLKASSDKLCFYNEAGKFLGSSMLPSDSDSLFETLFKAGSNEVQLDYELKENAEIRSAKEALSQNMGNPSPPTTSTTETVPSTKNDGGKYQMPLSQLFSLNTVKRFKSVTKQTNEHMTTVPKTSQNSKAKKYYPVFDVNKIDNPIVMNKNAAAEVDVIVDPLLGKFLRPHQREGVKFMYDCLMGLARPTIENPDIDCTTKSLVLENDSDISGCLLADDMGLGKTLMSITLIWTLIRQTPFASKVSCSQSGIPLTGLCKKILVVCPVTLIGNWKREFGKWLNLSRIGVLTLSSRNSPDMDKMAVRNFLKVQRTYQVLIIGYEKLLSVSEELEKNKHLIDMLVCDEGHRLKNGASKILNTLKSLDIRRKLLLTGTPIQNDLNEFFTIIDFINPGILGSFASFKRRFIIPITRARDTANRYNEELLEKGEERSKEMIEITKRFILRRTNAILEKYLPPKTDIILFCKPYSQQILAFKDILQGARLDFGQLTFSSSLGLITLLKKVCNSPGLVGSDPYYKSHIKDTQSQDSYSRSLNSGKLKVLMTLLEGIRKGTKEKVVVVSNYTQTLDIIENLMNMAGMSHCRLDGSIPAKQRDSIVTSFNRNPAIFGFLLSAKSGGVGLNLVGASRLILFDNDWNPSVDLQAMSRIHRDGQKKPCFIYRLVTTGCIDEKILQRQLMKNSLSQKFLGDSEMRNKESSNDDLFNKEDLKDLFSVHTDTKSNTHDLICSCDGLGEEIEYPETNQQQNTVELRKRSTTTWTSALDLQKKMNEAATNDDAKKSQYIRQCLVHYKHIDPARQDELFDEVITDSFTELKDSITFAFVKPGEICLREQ

His6-tagged Dmc1 = biological target: T2, His6-tagged Dmc1 (Saccharomyces cerevisiae, UniProt P25453 1-334); assay: co-IP
T2 sequence (looked up): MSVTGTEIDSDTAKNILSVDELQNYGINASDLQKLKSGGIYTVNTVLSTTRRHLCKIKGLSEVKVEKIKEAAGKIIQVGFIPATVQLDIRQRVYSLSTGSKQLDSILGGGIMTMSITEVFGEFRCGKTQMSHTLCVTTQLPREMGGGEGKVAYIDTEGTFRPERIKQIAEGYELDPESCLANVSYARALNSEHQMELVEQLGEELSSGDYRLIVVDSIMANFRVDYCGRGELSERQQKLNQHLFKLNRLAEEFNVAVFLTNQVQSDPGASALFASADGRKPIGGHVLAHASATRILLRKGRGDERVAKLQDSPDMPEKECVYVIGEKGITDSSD

[1] = biological target: Replication protein A (RPA), Saccharomyces cerevisiae (Saccharomyces cerevisiae, UniProt P22336 1-621; P26754 1-273; P26755 1-122); assay: pull-down
Sequence of Replication protein A (RPA), Saccharomyces cerevisiae (P22336 whole entry, chain 1 of 3): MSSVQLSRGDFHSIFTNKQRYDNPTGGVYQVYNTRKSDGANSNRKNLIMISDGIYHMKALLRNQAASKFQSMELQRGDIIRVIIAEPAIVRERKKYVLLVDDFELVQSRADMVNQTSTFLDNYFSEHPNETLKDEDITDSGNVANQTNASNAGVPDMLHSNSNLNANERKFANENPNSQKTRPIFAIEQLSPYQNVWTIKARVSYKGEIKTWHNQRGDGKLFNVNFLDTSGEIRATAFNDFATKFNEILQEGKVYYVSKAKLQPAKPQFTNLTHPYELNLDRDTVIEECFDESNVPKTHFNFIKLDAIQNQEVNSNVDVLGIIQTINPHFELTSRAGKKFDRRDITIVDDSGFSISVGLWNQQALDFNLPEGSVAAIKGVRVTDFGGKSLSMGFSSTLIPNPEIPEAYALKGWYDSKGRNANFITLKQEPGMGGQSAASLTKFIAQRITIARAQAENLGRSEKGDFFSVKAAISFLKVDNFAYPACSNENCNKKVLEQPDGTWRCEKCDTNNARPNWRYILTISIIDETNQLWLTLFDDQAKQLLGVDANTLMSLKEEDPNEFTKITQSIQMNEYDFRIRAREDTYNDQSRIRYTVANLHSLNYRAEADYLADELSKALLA
Sequence of Replication protein A (RPA), Saccharomyces cerevisiae (P26754 whole entry, chain 2 of 3): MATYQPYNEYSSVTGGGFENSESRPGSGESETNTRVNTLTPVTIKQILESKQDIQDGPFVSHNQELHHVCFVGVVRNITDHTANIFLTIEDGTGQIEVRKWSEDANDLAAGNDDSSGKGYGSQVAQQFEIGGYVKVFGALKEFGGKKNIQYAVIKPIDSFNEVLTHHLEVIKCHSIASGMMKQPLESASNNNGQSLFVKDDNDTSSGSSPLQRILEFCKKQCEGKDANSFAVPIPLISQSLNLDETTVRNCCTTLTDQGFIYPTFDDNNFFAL
Sequence of Replication protein A (RPA), Saccharomyces cerevisiae (P26755 whole entry, chain 3 of 3): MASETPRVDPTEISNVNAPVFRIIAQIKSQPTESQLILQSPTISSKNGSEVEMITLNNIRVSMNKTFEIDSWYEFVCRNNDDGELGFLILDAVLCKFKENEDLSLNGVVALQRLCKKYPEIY

Row | Binder | Kd (Rdh54/Tid1) [nM] | binding result (His6-tagged Dmc1) | binding result [1]
1 | B1 | 230 |  | 
2 | B2 |  | binds | binds
